From publication PMC9214875 come the findings set out here.

A short description of data set [1]: Blue Native PAGE, MHCC97H and HCCLM3. As to conditions: glycan lost; control: wild type.
Data set [2] is described as follows: cycloheximide chase, Western blot, MHCC97H. As to conditions: glycan lost; control: wild type (G-MerTK).
Data set [3] is described as follows: nuclear/cytoplasmic fractionation, Western blot, LO2 and MHCC97H. As to conditions: glycan lost; control: wild type. A general note: A western blot detects proteins with antibodies after separation by electrophoresis.
Data set [4] can be described thus: MG132 rescue of MerTK level, Western blot. As to conditions: glycan lost; control: no TM.
Data set [5] can be described thus: MerTK IP, anti-ubiquitin blot, MHCC97H and HCCLM3. As to conditions: glycan lost; control: untreated.
A short description of data set [6]: nuclear/cytoplasmic fractionation, Western blot, MHCC97H. As to conditions: glycan lost; control: untreated.
A short description of data set [7]: Blue Native PAGE, endogenous MerTK, MHCC97H. As to conditions: glycan lost; control: untreated / with glucose.

B1: MerTK: N294Q (protein)
parent chain: MGPAPLPLLLGLFLPALWRRAITEAREEAKPYPLFPGPFPGSLQTDHTPLLSLPHASGYQPALMFSPTQPGRPHTGNVAIPQVTSVESKPLPPLAFKHTVGHIILSEHKGVKFNCSISVPNIYQDTTISWWKDGKELLGAHHAITQFYPDDEVTAIIASFSITSVQRSDNGSYICKMKINNEEIVSDPIYIEVQGLPHFTKQPESMNVTRNTAFNLTCQAVGPPEPVNIFWVQNSSRVNEQPEKSPSVLTVPGLTEMAVFSCEAHNDKGLTVSKGVQINIKAIPSPPTEVSIRNSTAHSILISWVPGFDGYSPFRNCSIQVKEADPLSNGSVMIFNTSALPHLYQIKQLQALANYSIGVSCMNEIGWSAVSPWILASTTEGAPSVAPLNVTVFLNESSDNVDIRWMKPPTKQQDGELVGYRISHVWQSAGISKELLEEVGQNGSRARISVQVHNATCTVRIAAVTRGGVGPFSDPVKIFIPAHGWVDYAPSSTPAPGNADPVLIIFGCFCGFILIGLILYISLAIRKRVQETKFGNAFTEEDSELVVNYIAKKSFCRRAIELTLHSLGVSEELQNKLEDVVIDRNLLILGKILGEGEFGSVMEGNLKQEDGTSLKVAVKTMKLDNSSQREIEEFLSEAACMKDFSHPNVIRLLGVCIEMSSQGIPKPMVILPFMKYGDLHTYLLYSRLETGPKHIPLQTLLKFMVDIALGMEYLSNRNFLHRDLAARNCMLRDDMTVCVADFGLSKKIYSGDYYRQGRIAKMPVKWIAIESLADRVYTSKSDVWAFGVTMWEIATRGMTPYPGVQNHEMYDYLLHGHRLKQPEDCLDELYEIMYSCWRTDPLDRPTFSVLRLQLEKLLESLPDVRNQADVIYVNTQLLESSEGLAQGSTLAPLDLNIDPDSIIASCTPRAAISVVTAEVHDSKPHEGRYILNGGSEEWEDLTSAPSAAVTAEKNSVLPGERLVRNGVSWSHSSMLPLGSSLPDELLFADDSSEGSEVLM
As to B1, the oligomerisation result in data set [1] is listed as “decreases”. Further, the degradation_or_half_life result in data set [2] was “decreases”. Further, the localisation_or_trafficking entry in data set [3] is recorded as “increases”.

B2: MerTK: TM (protein)
parent chain: B1 parent chain
For B2, in data set [4], the degradation_or_half_life entry is reported as “decreases”. Moreover, the “other: ubiquitination” value in data set [5] is reported as “increases”. Besides, in data set [6], the localisation_or_trafficking result is on record as “increases”. Besides, in data set [7], the oligomerisation entry is “abolishes”.

B3: MerTK: glucose deprivation (protein)
parent chain: B1 parent chain
As to B3, the oligomerisation entry in data set [7] was “abolishes”.

B4: MerTK: N454Q (protein)
parent chain: B1 parent chain
For the protein B4, in data set [1], the oligomerisation result is listed as “decreases”. Also, in data set [2], the degradation_or_half_life result is reported as “decreases”. Besides, the localisation_or_trafficking result in data set [3] is on record as “increases”.
